This is an account of results in patent US6608174B1, “Radiolabeled vasoactive intestinal peptide analogs for diagnosis and radiotherapy” (Dabur Research Foundation, priority 2000, dated 2003).

One assay has as its system VIP receptors. The assay can be described thus: Displacement assay using 125I labeled VIP (10-28) fragment on human tumor cell lines. The note with it: inhibition of 125I labeled VIP (10-28) fragment binding. As for the experimental part: Peptides of the invention were assayed for biological activity in homogeneous competition binding assays using ^125I labeled VIP peptide (SEQ ID NO:1) and in heterogeneous displacement assays using either ^125I labeled VIP (10-28) fragment (Tyr-Thr-Arg-Leu-Arg-Lys-Gln-Met-Ala-Val-Lys-Lys-Tyr-Leu-Asn-Ser-Ile-Leu-Asn-NH2) (SEQ ID NO: 12) or ^125I labeled VIP (SEQ ID NO:1). The assays were performed on a variety of human tumor cell lines.
In the practice of these methods, the peptide was radioiodinated using the iodogen method. Briefly, 5 μg of the peptide in 10 μl of 50 mM PBS (pH 7.5), an appropriate amount of the radioisotope and 50 μg-100 μg iodogen were incubated at room temperature for 15-30 min with occasional mixing. Radioiodinated peptide was purified from unincorporated radioactive iodine by purification on a Sep Pak C18 cartridge, essentially following the same procedure as described for technetium labeling.
Displacement assays were performed at 4-8° C. Briefly, 50,000 cells were plated per well of a 24 well plate and allowed to adhere overnight. Before the assay, the cells were washed twice with ice cold Binding buffer (25 mM HEPES, 10 mM MgCl2 and 1% BSA in RPMI 1640 medium). The cells were incubated for 2-3hrs with an appropriate concentration (0.1-10 nM) of ^125I labeled VIP (10-28) fragment (SEQ ID NO:12) in the presence and absence of the cold ligand (SEQ ID NO: 2) (1 nM-10 μM). The non specific binding was ascertained using 10 μM of VIP. After incubation, the cells were washed thrice with the binding buffer to remove the unbound peptide. The cells were lysed and counts were measured in a Gamma counter. From a comparison of the extent of binding in the presence or absence of the unlabeled peptide, a concentration was determined corresponding to inhibition of ^125I labeled VIP (10-28) fragment binding by 50% (termed the IC50) (TABLE III).
The following tumor cell lines were assayed using the above described displacement assay: HT29 (human colorectal adenocarcinoma); PTC (human primary tumor cells adenocarcinoma); KB (human squamous cell carcinoma); 4451 (human squamous cell carcinoma); L132 (human lung carcinoma); A549 (human lung carcinoma); HBL100 (human breast carcinoma) and PA1 (human ovarian carcinoma).
Cells were grown in RPMI 1640 supplemented with 10% fetal calf serum, glutamine and antibiotics using standard cell culture techniques (see Animal Cell Culture: A Practical Approach, Freshney, ed, IRL press: Oxford, UK, 1992).

Assay [1] concerns the target VIP receptors on human tumor cell lines (human). The assay can be described thus: displacement of 125I labeled VIP on PTC cells. A general note: In a radioligand displacement assay an active substance lowers the binding of a labelled ligand.
The target is the same in assay [2]. The assay is described as follows: displacement of 125I labeled VIP on L132 cells.
Assay [3] addresses high affinity (nM range), low surface expression receptor on human tumor cells (VIP receptor) (human). The assay can be described thus: maximal binding, 125I-SEQ ID NO:2 on L132 cells.
Assay [4] deals with low affinity (µM range), high surface expression receptor on human tumor cells (VIP receptor) (human). The assay is described as follows: maximal binding, 125I-SEQ ID NO:2 on L132 cells.
For assay [5], the target named is high affinity (nM range), low surface expression receptor on human tumor cells (VIP receptor) (human). The assay is described as follows: maximal binding, 125I-SEQ ID NO:2 on PA1 cells (printed PAI).
Assay [6] has as its target low affinity (µM range), high surface expression receptor on human tumor cells (VIP receptor) (human). The assay is described as above.
The target in assay [7] is VIP receptors on human tumor cell lines (human). The assay is described as follows: displacement of 125I labeled VIP (10-28) fragment on KB cells.
Assay [8] has the same target. The assay can be described thus: displacement of 125I labeled VIP (10-28) fragment on HT29 cells.
The target is the same in assay [9]. The assay can be described thus: displacement of 125I labeled VIP (10-28) fragment on L132 cells.
For assay [10], the target named is high affinity (nM range), low surface expression receptor on human tumor cells (VIP receptor) (human). The assay is described as follows: homologous radioligand competition, 125I-SEQ ID NO:2 on KB cells.
The target of assay [11] is low affinity (µM range), high surface expression receptor on human tumor cells (VIP receptor) (human). Described as above.
For assay [12], the target named is high affinity (nM range), low surface expression receptor on human tumor cells (VIP receptor) (human). The assay is described as follows: homologous radioligand competition, 125I-SEQ ID NO:2 on 4451 cells.
The target of assay [13] is low affinity (µM range), high surface expression receptor on human tumor cells (VIP receptor) (human). The description is as above.
In assay [14] the target is high affinity (nM range), low surface expression receptor on human tumor cells (VIP receptor) (human). The assay can be described thus: homologous radioligand competition, 125I-SEQ ID NO:2 on L132 cells.
The target of assay [15] is low affinity (µM range), high surface expression receptor on human tumor cells (VIP receptor) (human). Described as above.

Square brackets hold non-standard residues; d marks the D form. Ends that are not written are not given here. dPhe(4-Cl) = N[C@H](Cc1ccc(Cl)cc1)C(=O)O; Aib = CC(C)(N)C(=O)O

On to “His-Ser-Asp-Aib-Val-4-Cl-D-Phe-Thr-Asp-Asn-Tyr-Thr-Arg-Leu-Arg-Lys-Gln-Leu-Ala-Val-Lys-Lys-Tyr-Leu-Asn-Ser-Ile-Leu-Asn-NH2 (HSD[Aib]V[dPhe(4-Cl)]TDNYTRLRKQLAVKKYLNSILN-NH2; N-terminus assumed; SMILES CC[C@H](C)[C@H](NC(=O)[C@H](CO)NC(=O)[C@H](CC(N)=O)NC(=O)[C@H](CC(C)C)NC(=O)[C@H](Cc1ccc(O)cc1)NC(=O)[C@H](CCCCN)NC(=O)[C@H](CCCCN)NC(=O)[C@@H](NC(=O)[C@H](C)NC(=O)[C@H](CC(C)C)NC(=O)[C@H](CCC(N)=O)NC(=O)[C@H](CCCCN)NC(=O)[C@H](CCCNC(=N)N)NC(=O)[C@H](CC(C)C)NC(=O)[C@H](CCCNC(=N)N)NC(=O)[C@@H](NC(=O)[C@H](Cc1ccc(O)cc1)NC(=O)[C@H](CC(N)=O)NC(=O)[C@H](CC(=O)O)NC(=O)[C@@H](NC(=O)[C@@H](Cc1ccc(Cl)cc1)NC(=O)[C@@H](NC(=O)C(C)(C)NC(=O)[C@H](CC(=O)O)NC(=O)[C@H](CO)NC(=O)[C@@H](N)Cc1c[nH]cn1)C(C)C)[C@@H](C)O)[C@@H](C)O)C(C)C)C(=O)N[C@@H](CC(C)C)C(=O)N[C@@H](CC(N)=O)C(N)=O) [SEQ ID NO:2, VIP receptor antagonist, preferred peptide (Xxx = Aib)]”, for which the IC50 (commonly the point on the concentration scale where inhibition reaches its midpoint) in the assay with VIP receptors (4451 cells) worked out at 0.383 nM; with VIP receptors (A549 cells), 0.275 nM; with VIP receptors (HBL 100 cells), 0.236 nM; in the assay with VIP receptors (HT29 cells), 0.22 nM; in the assay with VIP receptors (KB cells), 0.35 nM; in the assay on VIP receptors (L132 cells) it was 0.228 nM. Also, the values for the half-inhibitory concentration (IC50) in the assay on VIP receptors (PA1 cells) and with VIP receptors (PTC cells) were 0.31 nM and 0.132 nM, respectively.

For the molecule HSD[Aib]V[dPhe(4-Cl)]TDNYTRLRKQLAVKKYLNSILN-NH2 (also: 125I-labelled form (iodogen) used as tracer), the IC50 in assay [1] was found to be 2.53 nM; in assay [2] it was 6.8 nM; in assay [7] it was 0.35 nM; in assay [8], 0.22 nM; in assay [9], 0.228 nM. The figures for the Bmax1 in assay [3] and in assay [5] were 306 pM and 529 pM, respectively. For the same molecule, the values for the Bmax2 in [4] and in [6] were 45.8 nM and 47.7 nM, respectively. Besides, the Kd (in general, the free concentration of one partner at which half of the binding sites on the other are occupied at equilibrium, for simple one-to-one binding) in assay [10] came to 4.2 nM; in assay [11], 1840 nM; in assay [12] it was 4.48 nM; in [13], 1910 nM; in assay [14], 2.6 nM; in assay [15], 1030 nM.
